Results from patent US20240117018A1.

Key:
Test in all cases: cell-based or functional assay
[1] = biological target: 1006_11_C3_1601 Env pseudovirus (HIV-1)
[2] = biological target: 1012_11_TC21_3257 Env pseudovirus (HIV-1)
[3] = biological target: 1054_07_TC4_1499 Env pseudovirus (HIV-1)
[4] = biological target: 1056_10_TA11_1826 Env pseudovirus (HIV-1)
[5] = biological target: 246F C1G Env pseudovirus (HIV-1)
[6] = biological target: 9004SS_A3_4 Env pseudovirus (HIV-1)
[7] = biological target: CAP210.2.00.E8 Env pseudovirus (HIV-1)
[8] = biological target: CNE17 Env pseudovirus (HIV-1)
[9] = biological target: CNE21 Env pseudovirus (HIV-1)
[10] = biological target: CNE52 Env pseudovirus (HIV-1)
[11] = biological target: CNE53 Env pseudovirus (HIV-1)
[12] = biological target: Ce0393_C3 Env pseudovirus (HIV-1)
[13] = biological target: Ce0682_E4 Env pseudovirus (HIV-1)
[14] = biological target: Ce1176_A3 Env pseudovirus (HIV-1)
[15] = biological target: Ce2060_G9 Env pseudovirus (HIV-1)
[16] = biological target: Ce703010054_2A2 Env pseudovirus (HIV-1)
[17] = biological target: Du156.12 Env pseudovirus (HIV-1)
[18] = biological target: HIV-001428-2.42 Env pseudovirus (HIV-1)
[19] = biological target: HIV-16055-2.3 Env pseudovirus (HIV-1)
[20] = biological target: HIV-16845-2.22 Env pseudovirus (HIV-1)
[21] = biological target: MS208.A1 Env pseudovirus (HIV-1)
[22] = biological target: MuLV envelope (negative control pseudovirus) (MuLV)
[23] = biological target: PVO.4 Env pseudovirus (HIV-1)
[24] = biological target: Q259.d2.17 Env pseudovirus (HIV-1)
[25] = biological target: Q461.e2 Env pseudovirus (HIV-1)
[26] = biological target: Q769.d22 Env pseudovirus (HIV-1)
[27] = biological target: RHPA4259.7 Env pseudovirus (HIV-1)
[28] = biological target: SC05_8C11_2344 Env pseudovirus (HIV-1)
[29] = biological target: T257-31 Env pseudovirus (HIV-1)
[30] = biological target: THRO4156.18 Env pseudovirus (HIV-1)
[31] = biological target: TRJO4551.58 Env pseudovirus (HIV-1)
[32] = biological target: WEAU_d15_410_787 Env pseudovirus (HIV-1)
[33] = biological target: ZM109F.PB4 Env pseudovirus (HIV-1)
[34] = biological target: ZM197M.PB7 Env pseudovirus (HIV-1)
[35] = biological target: ZM249M.PL1 Env pseudovirus (HIV-1)
[36] = biological target: ZM53M.PB12 Env pseudovirus (HIV-1)

B1: N49P23 (antibody, V domains shown)
VH: QVRLVQSGAGARKTGASMKLSCSTSGYTFTTHHGHFINWVRQARGQGLEWMGWMNPMTGQMNIEGKFQGRVTLTRDIYSDTAYMEMTRLTTGDTGTYYCARGDFGQNYPFHYWGQGSLVIVSS
VL: LSALTQPASVSGSPGQSVTISCSGTNRYLVSWYQQHPDKAPKLIIYDDNKRPSGISDRFSASRPDDTASLTISGLQTGDEATYWCASYERFGGGTRLTVLS
[1]
  IC50: 0.015 µg/mL
  IC80: 0.054 µg/mL
  MPI: 100
[2]
  IC50: 0.013 µg/mL
  IC80: 0.085 µg/mL
  MPI: 100
[3]
  IC50: 0.272 µg/mL
  IC80: 1.21 µg/mL
  MPI: 100
[4]
  IC50: 0.075 µg/mL
  IC80: 0.483 µg/mL
  MPI: 100
[5]
  IC50: > 50 µg/mL
  IC80: > 50 µg/mL
  MPI: 11
[6]
  IC50: 0.043 µg/mL
  IC80: 0.223 µg/mL
  MPI: 100
[7]
  IC50: > 50 µg/mL
  IC80: > 50 µg/mL
  MPI: 2
[8]
  IC50: 0.221 µg/mL
  IC80: 0.809 µg/mL
  MPI: 100
[9]
  IC50: > 50 µg/mL
  IC80: > 50 µg/mL
  MPI: 0
[10]
  IC50: 0.014 µg/mL
  IC80: 0.051 µg/mL
  MPI: 100
[11]
  IC50: 0.026 µg/mL
  IC80: 0.095 µg/mL
  MPI: 100
[12]
  IC50: > 50 µg/mL
  IC80: > 50 µg/mL
  MPI: 29
[13]
  IC50: 1.39 µg/mL
  IC80: > 50 µg/mL
  MPI: 76
[14]
  IC50: 0.297 µg/mL
  IC80: 1.38 µg/mL
  MPI: 100
[15]
  IC50: 0.18 µg/mL
  IC80: 0.849 µg/mL
  MPI: 99
[16]
  IC50: > 50 µg/mL
  IC80: > 50 µg/mL
  MPI: 35
[17]
  IC50: > 50 µg/mL
  IC80: > 50 µg/mL
  MPI: 0
[18]
  IC50: 0.036 µg/mL
  IC80: 0.241 µg/mL
  MPI: 98
[19]
  IC50: > 50 µg/mL
  IC80: > 50 µg/mL
  MPI: 17
[20]
  IC50: > 50 µg/mL
  IC80: > 50 µg/mL
  MPI: 20
[21]
  IC50: 0.048 µg/mL
  IC80: 0.279 µg/mL
  MPI: 100
[22]
  IC50: > 50 µg/mL
  IC80: > 50 µg/mL
  MPI: 9
[23]
  IC50: 0.087 µg/mL
  IC80: 0.43 µg/mL
  MPI: 100
[24]
  IC50: 0.362 µg/mL
  IC80: 7.79 µg/mL
  MPI: 91
[25]
  IC50: 0.099 µg/mL
  IC80: 0.464 µg/mL
  MPI: 100
[26]
  IC50: 0.005 µg/mL
  IC80: 0.025 µg/mL
  MPI: 100
[27]
  IC50: 0.01 µg/mL
  IC80: 0.04 µg/mL
  MPI: 100
[28]
  IC50: 0.133 µg/mL
  IC80: 0.548 µg/mL
  MPI: 100
[29]
  IC50: 0.178 µg/mL
  IC80: 1.17 µg/mL
  MPI: 100
[30]
  IC50: 1.98 µg/mL
  IC80: 10.7 µg/mL
  MPI: 97
[31]
  IC50: 0.016 µg/mL
  IC80: 0.068 µg/mL
  MPI: 100
[32]
  IC50: 0.009 µg/mL
  IC80: 0.031 µg/mL
  MPI: 100
[33]
  IC50: 0.039 µg/mL
  IC80: 0.18 µg/mL
  MPI: 100
[34]
  IC50: 0.1 µg/mL
  IC80: 0.385 µg/mL
  MPI: 100
[35]
  IC50: > 50 µg/mL
  IC80: > 50 µg/mL
  MPI: 2
[36]
  IC50: 0.135 µg/mL
  IC80: 0.651 µg/mL
  MPI: 100
